Laboratory results as given in IntAct's records for PubMed 21968187.

B1: Amyloid beta precursor protein binding family B member 1 (Homo sapiens), O00213 (parent)
chain: MSVPSSLSQSAINANSHGGPALSLPLPLHAAHNQLLNAKLQATAVGPKDLRSAMGEGGGPEPGPANAKWLKEGQNQLRRAATAHRDQNRNVTLTLAEEASQEPEMAPLGPKGLIHLYSELELSAHNAANRGLRGPGLIISTQEQGPDEGEEKAAGEAEEEEEDDDDEEEEEDLSSPPGLPEPLESVEAPPRPQALTDGPREHSKSASLLFGMRNSAASDEDSSWATLSQGSPSYGSPEDTDSFWNPNAFETDSDLPAGWMRVQDTSGTYYWHIPTGTTQWEPPGRASPSQGSSPQEESQLTWTGFAHGEGFEDGEFWKDEPSDEAPMELGLKEPEEGTLTFPAQSLSPEPLPQEEEKLPPRNTNPGIKCFAVRSLGWVEMTEEELAPGRSSVAVNNCIRQLSYHKNNLHDPMSGGWGEGKDLLLQLEDETLKLVEPQSQALLHAQPIISIRVWGVGRDSGRERDFAYVARDKLTQMLKCHVFRCEAPAKNIATSLHEICSKIMAERRNARCLVNGLSLDHSKLVDVPFQVEFPAPKNELVQKFQVYYLGNVPVAKPVGVDVINGALESVLSSSSREQWTPSHVSVAPATLTILHQQTEAVLGECRVRFLSFLAVGRDVHTFAFIMAAGPASFCCHMFWCEPNAASLSEAVQAACMLRYQKCLDARSQASTSCLPAPPAESVARRVGWTVRRGVQSLWGSLKPKRLGAHTP

Variants of: B1
Settings: with lrp1_human LRP1, Q07954
lrp1_human LRP1, Q07954, sequence (Q07954 whole entry): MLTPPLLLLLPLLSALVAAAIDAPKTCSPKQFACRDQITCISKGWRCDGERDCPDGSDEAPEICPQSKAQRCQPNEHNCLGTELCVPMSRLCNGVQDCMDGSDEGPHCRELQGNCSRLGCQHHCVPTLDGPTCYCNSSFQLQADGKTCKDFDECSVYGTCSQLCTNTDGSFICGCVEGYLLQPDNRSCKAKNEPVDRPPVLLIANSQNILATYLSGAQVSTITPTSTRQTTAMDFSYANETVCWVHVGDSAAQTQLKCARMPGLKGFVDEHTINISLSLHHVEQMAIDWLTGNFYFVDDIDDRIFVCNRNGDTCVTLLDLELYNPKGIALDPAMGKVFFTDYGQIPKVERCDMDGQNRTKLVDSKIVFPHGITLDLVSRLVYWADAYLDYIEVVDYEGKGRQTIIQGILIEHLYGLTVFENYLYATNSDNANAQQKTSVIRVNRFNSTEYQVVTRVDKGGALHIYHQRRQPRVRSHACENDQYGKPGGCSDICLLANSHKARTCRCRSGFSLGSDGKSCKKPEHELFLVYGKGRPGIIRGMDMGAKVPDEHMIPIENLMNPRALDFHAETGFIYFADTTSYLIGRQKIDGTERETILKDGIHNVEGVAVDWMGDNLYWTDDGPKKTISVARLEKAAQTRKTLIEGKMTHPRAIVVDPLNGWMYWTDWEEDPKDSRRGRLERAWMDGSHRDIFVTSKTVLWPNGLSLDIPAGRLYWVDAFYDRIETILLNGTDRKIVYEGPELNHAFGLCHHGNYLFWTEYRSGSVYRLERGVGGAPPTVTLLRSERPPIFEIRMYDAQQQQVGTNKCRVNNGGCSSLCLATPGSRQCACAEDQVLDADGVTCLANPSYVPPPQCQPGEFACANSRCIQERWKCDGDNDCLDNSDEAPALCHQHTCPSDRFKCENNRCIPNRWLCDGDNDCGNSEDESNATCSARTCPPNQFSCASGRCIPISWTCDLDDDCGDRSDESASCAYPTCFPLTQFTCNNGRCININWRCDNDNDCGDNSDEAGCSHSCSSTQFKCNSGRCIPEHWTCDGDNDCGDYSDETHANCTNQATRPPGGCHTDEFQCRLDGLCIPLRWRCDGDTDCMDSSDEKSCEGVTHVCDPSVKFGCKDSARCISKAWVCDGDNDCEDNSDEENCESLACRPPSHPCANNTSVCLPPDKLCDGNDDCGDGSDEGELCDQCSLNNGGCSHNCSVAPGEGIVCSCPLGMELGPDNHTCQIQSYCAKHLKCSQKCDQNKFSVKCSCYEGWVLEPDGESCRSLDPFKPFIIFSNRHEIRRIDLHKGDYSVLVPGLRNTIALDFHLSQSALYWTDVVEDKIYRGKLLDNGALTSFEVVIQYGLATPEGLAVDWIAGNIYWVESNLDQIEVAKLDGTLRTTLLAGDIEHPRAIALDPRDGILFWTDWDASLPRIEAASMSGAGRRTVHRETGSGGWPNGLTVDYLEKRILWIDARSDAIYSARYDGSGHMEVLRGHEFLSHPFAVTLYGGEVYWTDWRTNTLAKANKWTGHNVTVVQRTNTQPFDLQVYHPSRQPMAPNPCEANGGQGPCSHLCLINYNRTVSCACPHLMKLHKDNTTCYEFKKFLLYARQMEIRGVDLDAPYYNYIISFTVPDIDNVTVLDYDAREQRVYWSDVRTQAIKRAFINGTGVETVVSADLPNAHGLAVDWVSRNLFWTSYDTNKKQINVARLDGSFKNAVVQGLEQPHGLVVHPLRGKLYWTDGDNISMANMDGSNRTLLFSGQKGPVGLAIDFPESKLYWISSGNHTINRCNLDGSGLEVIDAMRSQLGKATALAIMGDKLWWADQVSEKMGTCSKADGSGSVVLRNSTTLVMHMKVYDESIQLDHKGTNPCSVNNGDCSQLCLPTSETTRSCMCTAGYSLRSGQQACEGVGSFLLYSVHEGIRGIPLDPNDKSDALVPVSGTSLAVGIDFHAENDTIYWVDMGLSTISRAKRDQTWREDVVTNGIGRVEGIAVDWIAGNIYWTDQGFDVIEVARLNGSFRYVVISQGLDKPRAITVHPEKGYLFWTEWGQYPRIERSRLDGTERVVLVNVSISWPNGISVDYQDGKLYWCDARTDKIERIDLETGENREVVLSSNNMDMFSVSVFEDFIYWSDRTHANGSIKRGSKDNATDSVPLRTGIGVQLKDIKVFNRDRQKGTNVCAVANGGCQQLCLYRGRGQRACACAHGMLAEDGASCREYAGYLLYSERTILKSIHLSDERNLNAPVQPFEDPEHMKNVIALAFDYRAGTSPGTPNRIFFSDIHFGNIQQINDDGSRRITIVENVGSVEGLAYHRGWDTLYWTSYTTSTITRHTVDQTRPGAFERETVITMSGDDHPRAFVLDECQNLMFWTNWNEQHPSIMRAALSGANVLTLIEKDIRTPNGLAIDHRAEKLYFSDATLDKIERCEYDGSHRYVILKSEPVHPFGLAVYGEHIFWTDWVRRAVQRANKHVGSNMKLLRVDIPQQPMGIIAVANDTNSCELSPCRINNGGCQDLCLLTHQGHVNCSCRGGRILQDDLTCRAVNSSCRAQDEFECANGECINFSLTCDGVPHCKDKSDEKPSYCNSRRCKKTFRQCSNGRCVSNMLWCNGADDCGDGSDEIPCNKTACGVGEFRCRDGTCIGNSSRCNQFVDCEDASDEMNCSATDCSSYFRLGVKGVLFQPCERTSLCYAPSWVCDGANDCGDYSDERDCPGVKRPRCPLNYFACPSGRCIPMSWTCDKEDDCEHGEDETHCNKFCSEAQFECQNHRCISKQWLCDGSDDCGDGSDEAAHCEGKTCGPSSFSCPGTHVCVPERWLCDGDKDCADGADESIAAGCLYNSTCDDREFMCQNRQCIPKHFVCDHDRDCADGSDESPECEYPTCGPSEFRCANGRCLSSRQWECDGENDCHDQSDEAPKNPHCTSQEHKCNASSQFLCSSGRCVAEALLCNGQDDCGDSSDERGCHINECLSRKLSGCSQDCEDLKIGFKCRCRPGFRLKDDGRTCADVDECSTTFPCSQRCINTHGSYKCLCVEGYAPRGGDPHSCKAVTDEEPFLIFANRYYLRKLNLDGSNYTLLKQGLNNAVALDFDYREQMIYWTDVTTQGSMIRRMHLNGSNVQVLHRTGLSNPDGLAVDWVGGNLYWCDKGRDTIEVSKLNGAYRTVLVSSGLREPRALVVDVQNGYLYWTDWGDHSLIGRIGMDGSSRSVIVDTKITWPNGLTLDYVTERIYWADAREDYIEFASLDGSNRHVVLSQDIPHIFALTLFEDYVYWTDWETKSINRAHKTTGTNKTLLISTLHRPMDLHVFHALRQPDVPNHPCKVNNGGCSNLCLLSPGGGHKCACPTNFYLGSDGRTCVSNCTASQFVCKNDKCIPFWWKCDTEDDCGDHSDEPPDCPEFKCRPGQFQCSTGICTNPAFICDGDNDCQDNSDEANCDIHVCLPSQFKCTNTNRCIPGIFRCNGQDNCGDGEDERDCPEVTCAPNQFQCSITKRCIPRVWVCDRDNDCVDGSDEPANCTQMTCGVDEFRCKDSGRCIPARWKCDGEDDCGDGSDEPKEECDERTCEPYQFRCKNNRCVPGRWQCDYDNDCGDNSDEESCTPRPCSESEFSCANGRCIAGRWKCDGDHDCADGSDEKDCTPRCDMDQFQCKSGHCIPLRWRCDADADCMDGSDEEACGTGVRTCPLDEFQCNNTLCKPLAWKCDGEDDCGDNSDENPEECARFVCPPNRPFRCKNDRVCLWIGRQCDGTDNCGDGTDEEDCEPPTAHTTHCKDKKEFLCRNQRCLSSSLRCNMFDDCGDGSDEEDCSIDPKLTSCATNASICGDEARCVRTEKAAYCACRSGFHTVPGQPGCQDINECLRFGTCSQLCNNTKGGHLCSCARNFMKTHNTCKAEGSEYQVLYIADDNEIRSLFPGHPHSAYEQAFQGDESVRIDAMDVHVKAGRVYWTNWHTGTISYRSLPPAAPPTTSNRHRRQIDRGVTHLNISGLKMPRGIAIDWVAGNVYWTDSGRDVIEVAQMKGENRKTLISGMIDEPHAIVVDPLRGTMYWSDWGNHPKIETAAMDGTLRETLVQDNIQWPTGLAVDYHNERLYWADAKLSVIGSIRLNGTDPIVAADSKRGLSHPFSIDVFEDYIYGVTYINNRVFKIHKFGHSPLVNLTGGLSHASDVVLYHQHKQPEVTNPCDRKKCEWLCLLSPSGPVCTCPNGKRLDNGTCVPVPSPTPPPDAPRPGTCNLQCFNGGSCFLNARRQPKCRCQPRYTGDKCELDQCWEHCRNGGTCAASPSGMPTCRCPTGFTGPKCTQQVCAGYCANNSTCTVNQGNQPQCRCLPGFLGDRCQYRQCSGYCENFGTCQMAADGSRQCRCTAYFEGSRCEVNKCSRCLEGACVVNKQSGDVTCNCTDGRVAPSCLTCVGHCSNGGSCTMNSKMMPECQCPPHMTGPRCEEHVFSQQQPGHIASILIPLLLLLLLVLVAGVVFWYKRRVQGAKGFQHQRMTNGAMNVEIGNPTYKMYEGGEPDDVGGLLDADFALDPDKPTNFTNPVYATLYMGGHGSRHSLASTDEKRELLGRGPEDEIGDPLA

Variant	effect of a mutation on the interaction
R451A	disrupting interaction
R470A	disrupting interaction
